From patent publication US20220332804A1 (CSL INNOVATION, published 2022) come the findings set out here.

Test in all cases: SPR; KD relative to WT C2;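 also: biacore SPR at 37 °C, anti-C2 mAbs captured on an anti-human IgG chip, alanine or serine C2 surface mutants tested, KD from 1:1 fit compared with wild-type C2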
On the technique in general: Surface plasmon resonance follows binding to a sensor surface in real time, without labels.

One test concerns the target T1, human C2 S456A (human, UniProt P06681 21-752).
T1 sequence: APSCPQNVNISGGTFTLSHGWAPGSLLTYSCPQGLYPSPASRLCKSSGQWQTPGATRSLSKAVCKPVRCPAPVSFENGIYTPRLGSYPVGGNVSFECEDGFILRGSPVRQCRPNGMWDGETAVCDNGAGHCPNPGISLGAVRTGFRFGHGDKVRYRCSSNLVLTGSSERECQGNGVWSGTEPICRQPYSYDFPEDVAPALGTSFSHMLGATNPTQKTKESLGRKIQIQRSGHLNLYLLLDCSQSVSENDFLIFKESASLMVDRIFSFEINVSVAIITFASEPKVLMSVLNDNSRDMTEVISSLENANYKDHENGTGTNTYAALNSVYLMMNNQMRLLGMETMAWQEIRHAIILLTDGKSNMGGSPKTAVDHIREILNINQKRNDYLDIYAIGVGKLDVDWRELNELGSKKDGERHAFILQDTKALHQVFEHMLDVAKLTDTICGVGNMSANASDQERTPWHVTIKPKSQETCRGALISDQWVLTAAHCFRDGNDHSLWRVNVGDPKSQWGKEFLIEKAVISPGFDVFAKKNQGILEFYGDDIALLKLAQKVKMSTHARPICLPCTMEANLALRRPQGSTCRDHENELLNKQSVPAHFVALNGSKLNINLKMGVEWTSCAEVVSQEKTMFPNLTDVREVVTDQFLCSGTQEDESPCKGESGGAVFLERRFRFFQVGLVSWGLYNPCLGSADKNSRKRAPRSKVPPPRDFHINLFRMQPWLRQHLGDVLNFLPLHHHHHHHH

The target in another test is T2, human C2 A472S (human, UniProt P06681 21-752).
T2 sequence: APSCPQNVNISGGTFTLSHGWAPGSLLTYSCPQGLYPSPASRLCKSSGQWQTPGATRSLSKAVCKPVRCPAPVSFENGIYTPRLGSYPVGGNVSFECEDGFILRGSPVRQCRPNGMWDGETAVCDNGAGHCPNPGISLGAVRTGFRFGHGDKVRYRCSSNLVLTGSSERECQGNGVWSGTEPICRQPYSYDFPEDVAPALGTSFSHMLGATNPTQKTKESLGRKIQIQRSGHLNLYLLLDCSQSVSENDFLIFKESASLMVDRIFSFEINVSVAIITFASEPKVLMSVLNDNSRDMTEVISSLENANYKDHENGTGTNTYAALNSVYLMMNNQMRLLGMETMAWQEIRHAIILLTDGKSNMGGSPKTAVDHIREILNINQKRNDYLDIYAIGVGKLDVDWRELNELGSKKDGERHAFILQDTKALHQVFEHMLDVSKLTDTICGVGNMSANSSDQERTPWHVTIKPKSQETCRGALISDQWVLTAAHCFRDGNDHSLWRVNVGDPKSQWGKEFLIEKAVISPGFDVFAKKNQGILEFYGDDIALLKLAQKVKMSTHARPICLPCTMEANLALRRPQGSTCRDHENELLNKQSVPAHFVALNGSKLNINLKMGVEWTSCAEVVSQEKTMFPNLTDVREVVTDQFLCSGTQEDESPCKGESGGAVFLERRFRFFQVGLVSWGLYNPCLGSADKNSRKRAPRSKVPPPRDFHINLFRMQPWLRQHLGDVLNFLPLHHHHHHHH

For a further test, the target named is T3, human C2 F437A (human, UniProt P06681 21-752).
T3 sequence: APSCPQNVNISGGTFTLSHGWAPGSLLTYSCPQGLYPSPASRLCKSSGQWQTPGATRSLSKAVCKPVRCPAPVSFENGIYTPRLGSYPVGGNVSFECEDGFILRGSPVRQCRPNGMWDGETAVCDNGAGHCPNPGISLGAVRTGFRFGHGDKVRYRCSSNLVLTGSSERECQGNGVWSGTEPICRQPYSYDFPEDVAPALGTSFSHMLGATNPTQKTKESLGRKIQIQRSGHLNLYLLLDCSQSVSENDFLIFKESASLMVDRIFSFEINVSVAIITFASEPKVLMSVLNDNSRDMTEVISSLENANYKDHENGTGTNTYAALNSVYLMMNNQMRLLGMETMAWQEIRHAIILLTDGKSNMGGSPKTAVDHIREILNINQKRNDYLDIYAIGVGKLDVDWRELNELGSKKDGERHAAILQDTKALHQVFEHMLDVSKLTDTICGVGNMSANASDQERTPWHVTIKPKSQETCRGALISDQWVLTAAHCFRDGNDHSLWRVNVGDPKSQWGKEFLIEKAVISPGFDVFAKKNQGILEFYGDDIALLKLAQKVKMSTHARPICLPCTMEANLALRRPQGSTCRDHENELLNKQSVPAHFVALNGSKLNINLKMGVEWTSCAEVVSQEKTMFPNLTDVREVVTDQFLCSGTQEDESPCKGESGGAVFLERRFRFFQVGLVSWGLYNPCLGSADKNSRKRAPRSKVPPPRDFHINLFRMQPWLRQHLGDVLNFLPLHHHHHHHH

For the next test, the target named is T4, human C2 S278A (human, UniProt P06681 21-752).
T4 sequence: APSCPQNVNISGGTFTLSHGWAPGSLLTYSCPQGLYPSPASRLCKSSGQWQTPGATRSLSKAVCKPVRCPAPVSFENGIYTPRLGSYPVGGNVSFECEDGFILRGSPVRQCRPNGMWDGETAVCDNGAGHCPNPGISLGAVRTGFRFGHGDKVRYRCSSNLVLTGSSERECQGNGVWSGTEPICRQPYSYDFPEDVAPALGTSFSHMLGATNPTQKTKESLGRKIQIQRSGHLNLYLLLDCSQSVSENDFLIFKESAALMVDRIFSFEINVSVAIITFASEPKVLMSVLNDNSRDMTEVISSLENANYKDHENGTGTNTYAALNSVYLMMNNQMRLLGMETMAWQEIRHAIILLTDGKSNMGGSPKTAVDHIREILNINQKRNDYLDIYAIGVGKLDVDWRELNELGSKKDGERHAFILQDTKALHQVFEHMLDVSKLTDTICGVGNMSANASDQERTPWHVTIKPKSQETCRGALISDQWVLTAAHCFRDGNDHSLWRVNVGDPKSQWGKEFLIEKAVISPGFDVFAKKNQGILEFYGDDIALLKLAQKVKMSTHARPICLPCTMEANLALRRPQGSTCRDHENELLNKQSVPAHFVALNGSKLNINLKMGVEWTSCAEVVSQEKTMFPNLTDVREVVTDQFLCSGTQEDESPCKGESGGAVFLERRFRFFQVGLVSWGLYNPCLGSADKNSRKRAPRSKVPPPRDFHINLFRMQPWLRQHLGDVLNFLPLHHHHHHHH

Method for human C2 A472S: (§1) Surface plasmon resonance (SPR, Biacore) was used for all binding affinity analyses. In brief, goat anti-human IgG was directly immobilised onto the carboxymethyl dextran surface of CM5 sensorchips to approximately 12,000 RU using standard NHS/EDC chemistry at pH 5. The immobilised antibody surface was pre-conditioned with ten injections of polyclonal human IgG (Privigen 60 s) prepared at 1 μg/mL. Ligands (anti-C2 mAbs) were captured at the beginning of each cycle as described below. An adjacent spot or flow cell in which only Polyclonal IgG was capture was used as a reference surface. The goat anti-human IgG Fc antibody surface was regenerate in 100 mM H3PO4, injected for 45 seconds at the end of each cycle. Experiments were performed at 37° C. and the flow rate of each experiment was kept constant at 30 μL/min.
(§2) Sensogram data was double-referenced against a reference anti-IgG surface (i.e. minus anti-C2 mAb) and blank buffer injections obtained within each experiment. The binding data was fit to 1:1 (kinetic or steady-state) model using local Rmax and null refraction index (RI=0) when appropriate. Buffers and solutions were filtered (0.22 μm) prior to use.
(§3) The C2 mutants were designed to test the importance of surface exposed residues for antibody binding. Residues located at either the N-terminal VWA domain or C-terminal protease domain of C were replaced by either alanine or serine and tested for binding against anti-C2 antibodies.
Method for human C2 F437A: as §1, §2, §3
Method for human C2 S278A: as §1, §2, §3
Method for human C2 S456A: as §1, §2, §3

B1: RF16-214 (antibody, V domains shown)
VH: EVQLLESGGGLVQPGGSLRLSCAASGFTFSWYQMMWVRQAPGKGLEWVSRIYPSGGGTAYADSVKGRFTISRDNSKNTLYLQMNSLRAEDTAVYYCARDAGYGDNWGQGTLVTVSS
VL: QSALTQPPSVSVSPGQTASITCSGDKLGEKYASWYQQKAGQSPVMVIYQDRKRPSGIPERFSGSNSGNTATLTISGTQAMDEADYYCQAWDTRAVVFGGGTKLTVLG
In the case of B1, the Fold diff turned out to be 5 fold in the test with human C2 S456A, 8 fold in the test with human C2 A472S, 12 fold with human C2 F437A and 1 fold in the test with human C2 S278A.
